Residue numbers refer to the chain shown, from its start. Numbers in names are those of the source.
Experiments:
human FcRn [1] = target: T1, human FcRn (human); experiment: BIAcore SPR, equilibrium binding with Scatchard analysis, soluble human FcRn over immobilized IgG1, pH 6.0
T1 construct: mature; Soluble heterodimer from baculovirus-infected High-Five cells, purified on IgG Sepharose; also called recombinant human FcRn; the human receptor
Method: (§1) The interaction of soluble murine and human FcRn with immobilized human IgG1 variants was monitored by surface plasmon resonance detection using a BIAcore 3000 instrument (Pharmacia Biosensor, Uppsala, Sweden). […] Protein concentrations were calculated by the bicinchoninic acid (BCA) method for both human and murine FcRn or using the 1% extinction coefficient at 280 m of 1.5 for IgG1 wild type and variants. The latter were coupled to the dextran matrix of a CM5 sensor chip (Pharmacia Biosensor) using an Amine Coupling Kit as described (Johnson et al., supra). The protein concentrations ranged from 3-5 μg/ml in 10 mM sodium acetate, pH 5.0. The activation period was set for 7 minutes at a flow rate of 10 μl/min and the immobilization period was set to between 10 and 20 minutes at a flow rate of 10 μl/min. Excess reactive esters were quenched by injection of 70 μl of 1.0 methanolamine hydrochloride, pH 8.5. […] Human and murine FcRn were buffer exchanged against 50 mM PBS buffer pH 6.0 containing 0.05% Tween 20. Dilutions were made in the same buffer. All binding experiments were performed at 25 C. with concentrations ranging from 120 to 1 μg/ml at a flow rate of 5 to 10 μl/min; data were collected for 25 to 50 minutes and three 1-minute pulses of PBS buffer pH 7.2 were used to regenerate the surfaces. FcRn was also flowed over an uncoated cell and the sensorgrams from these blank runs subtracted from those obtained with IgG1-coupled chips. Runs were analyzed using the software BIAevaluation 3.1 (Pharmacia). Association constants (KAS) were determined from Scatchard analysis by measuring the concentration of free reactants and complex at equilibrium after correction for nonspecific binding.

murine FcRn [2] = target: T2, murine FcRn (murine, UniProt P01887 21-119, limits assumed); experiment: BIAcore SPR, equilibrium binding with Scatchard analysis, soluble murine FcRn over immobilized IgG1, pH 6.0
T2 construct: the whole entry is named; also called mouse FcRn; muFcRn
T2 sequence: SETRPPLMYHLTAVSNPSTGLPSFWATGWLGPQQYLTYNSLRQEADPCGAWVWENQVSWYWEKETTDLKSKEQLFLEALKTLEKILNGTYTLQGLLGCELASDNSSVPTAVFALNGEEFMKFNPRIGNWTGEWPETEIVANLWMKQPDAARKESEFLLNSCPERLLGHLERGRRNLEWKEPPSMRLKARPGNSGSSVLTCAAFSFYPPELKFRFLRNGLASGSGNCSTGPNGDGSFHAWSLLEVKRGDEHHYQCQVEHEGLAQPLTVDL
T2 sequence (b2m): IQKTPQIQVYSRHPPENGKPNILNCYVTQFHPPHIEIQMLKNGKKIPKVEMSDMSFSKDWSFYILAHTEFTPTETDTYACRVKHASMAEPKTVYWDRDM
Method: as §1

human FcRn [3] = target: T1, human FcRn; experiment: BIAcore SPR, soluble human FcRn over immobilized IgG1, pH 6.0
Method: (§2) The interaction of soluble murine and human FcRn with immobilized human IgG1 variants was monitored by surface plasmon resonance detection using a BIAcore 3000 instrument (Pharmacia Biosensor, Uppsala, Sweden). […] Protein concentrations were calculated by the bicinchoninic acid (BCA) method for both human and murine FcRn or using the 1% extinction coefficient at 280 m of 1.5 for IgG1 wild type and variants. The latter were coupled to the dextran matrix of a CM5 sensor chip (Pharmacia Biosensor) using an Amine Coupling Kit as described (Johnson et al., supra). The protein concentrations ranged from 3-5 μg/ml in 10 mM sodium acetate, pH 5.0. The activation period was set for 7 minutes at a flow rate of 10 μl/min and the immobilization period was set to between 10 and 20 minutes at a flow rate of 10 μl/min. Excess reactive esters were quenched by injection of 70 μl of 1.0 methanolamine hydrochloride, pH 8.5. […] Human and murine FcRn were buffer exchanged against 50 mM PBS buffer pH 6.0 containing 0.05% Tween 20. Dilutions were made in the same buffer. […] Runs were analyzed using the software BIAevaluation 3.1 (Pharmacia). Association constants (KAS) were determined from Scatchard analysis by measuring the concentration of free reactants and complex at equilibrium after correction for nonspecific binding.

murine FcRn [4] = target: T2, murine FcRn; experiment: BIAcore SPR, soluble murine FcRn over immobilized IgG1, pH 6.0
Method: as §2

murine FcRn [5] = target: T2, murine FcRn; experiment: BIAcore SPR, Scatchard analysis of FIG. 7A, murine FcRn 1 nM to 556 nM over 4000 RU of immobilized IgG1
Method: Runs were analyzed using the software BIAevaluation 3.1 (Pharmacia). Association constants (KAS) were determined from Scatchard analysis by measuring the concentration of free reactants and complex at equilibrium after correction for nonspecific binding. […] The concentration of free analyte (human or murine FcRn) is equal to the bulk analyte concentration since analyte is constantly replenished during sample injection. The concentration of free ligand on the surface of the sensor chip can be derived from the concentration of the complex and from the total binding capacity of the surface as KA=Req/C(Rmax-Req) where C is the free analyte concentration, Req is the steady-state response, and Rmax is the total surface binding capacity. Rearranging, the equation reads: Req/C=KA Rmax-KA Req.
In all cases, equilibrium (or near-equilibrium) binding levels were reached within 50 minutes. To estimate the increase in RU resulting from the non specific effect of protein on the bulk refractive index, binding of FcRn to an uncoated cell was measured and the sensorgrams from these blank runs subtracted from those obtained with IgG1-coupled chips.

T1 sequence (chain, as listed by the source limits assumed, chain 1 of 2): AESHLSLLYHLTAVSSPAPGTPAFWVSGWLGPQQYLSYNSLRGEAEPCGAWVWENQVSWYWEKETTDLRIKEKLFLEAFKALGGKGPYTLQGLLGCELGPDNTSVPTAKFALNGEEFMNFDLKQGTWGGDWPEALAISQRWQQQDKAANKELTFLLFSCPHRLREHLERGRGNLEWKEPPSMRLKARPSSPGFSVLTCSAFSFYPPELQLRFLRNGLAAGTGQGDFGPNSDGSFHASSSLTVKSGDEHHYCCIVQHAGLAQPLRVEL
T1 sequence (P61769 21-119 limits assumed, chain 2 of 2): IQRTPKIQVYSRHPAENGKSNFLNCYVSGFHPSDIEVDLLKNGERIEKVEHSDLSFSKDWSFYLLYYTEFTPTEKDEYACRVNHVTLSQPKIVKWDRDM

B1: human IgG1 MEDI-493 (SYNAGIS) G385R/Q386T/P387R/N389P (antibody)
heavy (part 1 of 2): QVTLRESGPALVKPTQTLTLTCTFSGFSLSTSGMSVGWIRQPPGKALEWLADIWWDDKKDYNPSLKSRLTISKDTSKNQVVLKVTNMDPADTATYYCARSMITNWYFDVWGAGTTVTVSS
heavy (part 2 of 2): EPKSCDKTHTCPPCPAPELLGGPSVFLFPPKPKDTLMISRTPEVTCVVVDVSHEDPEVKFNWYVDGVEVHNAKTKPREEQYNSTYRVVSVLTVLHQDWLNGKEYKCKVSNKALPAPIEKTISKAKGQPREPQVYTLPPSREEMTKNQVSLTCLVKGFYPSDIAVEWESNRTREPNYKTTPPVLDSDGSFFLYSKLTVDKSRWQQGNVFSCSVMHEALHNHYTQKSLSLSPGK
light: DIQMTQSPSTLSASVGDRVTITCKCQLSVGYMHWYQQKPGKAPKLLIYDTSKLASGVPSRFSGSGSGTEFTLTISSLQPDDFATYYCFQGSGYPFTFGGGTKLEIK
notes: HEK 293, protein A purified; not shown: human IgG1 heavy chain CH1 domain (between VH and hinge-Fc); human kappa light chain constant domain
- ΔΔG (ΔG wild type - ΔG mutant) (human FcRn [1]): 0.3 kcal/mol

B2: human IgG1 MEDI-493 (SYNAGIS) H433K/N434F/Y436H (antibody)
heavy (part 1 of 2): B1 heavy (part 1 of 2)
heavy (part 2 of 2): B1 heavy (part 2 of 2) with R170G, T171Q, R172P, P174N, H218K, N219F, Y221H
light: B1 light
notes: as for B1
- ΔΔG (ΔG wild type - ΔG mutant) (human FcRn [1]): 1.1 kcal/mol
- Kd (murine FcRn [2]): 14 nM
- ΔΔG (ΔG wild type - ΔG mutant) (murine FcRn [2]): 1.8 kcal/mol

B3: human IgG1 MEDI-493 (SYNAGIS) I253A (antibody)
heavy (part 1 of 2): B1 heavy (part 1 of 2)
heavy (part 2 of 2): not shown
light: B1 light
notes: HEK 293, protein A purified; also called 1253A; not shown: human IgG1 heavy chain CH1 domain (between VH and hinge-Fc); human kappa light chain constant domain
- binding result (human FcRn [3]): no binding (tested: FcRn 1 to 120 µg/ml)
- binding result (murine FcRn [4]): no binding (tested: FcRn 1 to 120 µg/ml)

B4: human IgG1 MEDI-493 (SYNAGIS) M252W (antibody)
heavy (part 1 of 2): B1 heavy (part 1 of 2)
heavy (part 2 of 2): not shown
light: B1 light
notes: as for B1
- ΔΔG (ΔG wild type - ΔG mutant) (human FcRn [1]): 1.1 kcal/mol
- Kd (murine FcRn [2]): 30 nM
- ΔΔG (ΔG wild type - ΔG mutant) (murine FcRn [2]): 1.3 kcal/mol

B5: human IgG1 MEDI-493 (SYNAGIS) M252Y/S254T/T256E (antibody)
heavy (part 1 of 2): B1 heavy (part 1 of 2)
heavy (part 2 of 2): B1 heavy (part 2 of 2) with M37Y, S39T, T41E, R170G, T171Q, R172P, P174N
light: B1 light
notes: HEK 293, protein A purified; also called IgG1/M252Y/S254T/T256E; not shown: human IgG1 heavy chain CH1 domain (between VH and hinge-Fc); human kappa light chain constant domain
- Kd (murine FcRn [5]): 24 nM
- ΔΔG (ΔG wild type - ΔG mutant) (human FcRn [1]): 1.4 kcal/mol
- Kd (murine FcRn [2]): 27 nM
- ΔΔG (ΔG wild type - ΔG mutant) (murine FcRn [2]): 1.4 kcal/mol

B6: human IgG1 MEDI-493 (SYNAGIS) M252Y/T256Q (antibody)
heavy (part 1 of 2): B1 heavy (part 1 of 2)
heavy (part 2 of 2): not shown
light: B1 light
notes: as for B1
- ΔΔG (ΔG wild type - ΔG mutant) (human FcRn [1]): 0.9 kcal/mol

B7: human IgG1 MEDI-493 (SYNAGIS) N434F/Y436H (antibody)
heavy (part 1 of 2): B1 heavy (part 1 of 2)
heavy (part 2 of 2): not shown
light: B1 light
notes: as for B1
- ΔΔG (ΔG wild type - ΔG mutant) (human FcRn [1]): 1 kcal/mol
- Kd (murine FcRn [2]): 9 nM
- ΔΔG (ΔG wild type - ΔG mutant) (murine FcRn [2]): 2 kcal/mol
